Here are results for six proteins from ChEMBL document CHEMBL1156468, “Crystal structures of Saccharomyces cerevisiae N-myristoyltransferase with bound myristoyl-CoA and inhibitors reveal the functional roles of the N-terminal region” (J Biol Chem, 2007).

Substrate in data set [1]: CC(C)C[C@H](NC(=O)CN)C(=O)N[C@@H](Cc1ccccc1)C(=O)N[C@@H](C)C(=O)N[C@@H](CO)C(=O)N[C@@H](CCCCN)C(=O)N[C@@H](CC(C)C)C(=O)N[C@@H](Cc1ccccc1)C(=O)O
In words: Activity of Saccharomyces cerevisiae NMT D108A mutant assessed as production of coenzyme A after 1 hr.

Substrate in data set [2]: CC(C)C[C@H](NC(=O)CN)C(=O)N[C@@H](Cc1ccccc1)C(=O)N[C@@H](C)C(=O)N[C@@H](CO)C(=O)N[C@@H](CCCCN)C(=O)N[C@@H](CC(C)C)C(=O)N[C@@H](Cc1ccccc1)C(=O)O
As to the kind of experiment: Ratio of kcat to Km for Saccharomyces cerevisiae NMT D108A mutant.

Substrate in data set [3]: CC(C)C[C@H](NC(=O)CN)C(=O)N[C@@H](Cc1ccccc1)C(=O)N[C@@H](C)C(=O)N[C@@H](CO)C(=O)N[C@@H](CCCCN)C(=O)N[C@@H](CC(C)C)C(=O)N[C@@H](Cc1ccccc1)C(=O)O
In words: Activity of Saccharomyces cerevisiae NMT T24D mutant assessed as production of coenzyme A after 1 hr.

Substrate in data set [4]: CC(C)C[C@H](NC(=O)CN)C(=O)N[C@@H](Cc1ccccc1)C(=O)N[C@@H](C)C(=O)N[C@@H](CO)C(=O)N[C@@H](CCCCN)C(=O)N[C@@H](CC(C)C)C(=O)N[C@@H](Cc1ccccc1)C(=O)O
As to the kind of experiment: Ratio of kcat to Km for Saccharomyces cerevisiae NMT T24D mutant.

Substrate in data set [5]: CC(C)C[C@H](NC(=O)CN)C(=O)N[C@@H](Cc1ccccc1)C(=O)N[C@@H](C)C(=O)N[C@@H](CO)C(=O)N[C@@H](CCCCN)C(=O)N[C@@H](CC(C)C)C(=O)N[C@@H](Cc1ccccc1)C(=O)O
As to the kind of experiment: Activity of Saccharomyces cerevisiae NMT D23A mutant assessed as production of coenzyme A after 1 hr.

Substrate in data set [6]: CC(C)C[C@H](NC(=O)CN)C(=O)N[C@@H](Cc1ccccc1)C(=O)N[C@@H](C)C(=O)N[C@@H](CO)C(=O)N[C@@H](CCCCN)C(=O)N[C@@H](CC(C)C)C(=O)N[C@@H](Cc1ccccc1)C(=O)O
In words: Ratio of kcat to Km for Saccharomyces cerevisiae NMT D23A mutant.

Substrate in data set [7]: CC(C)C[C@H](NC(=O)CN)C(=O)N[C@@H](Cc1ccccc1)C(=O)N[C@@H](C)C(=O)N[C@@H](CO)C(=O)N[C@@H](CCCCN)C(=O)N[C@@H](CC(C)C)C(=O)N[C@@H](Cc1ccccc1)C(=O)O
In words: Activity of Saccharomyces cerevisiae NMT D106K mutant assessed as production of coenzyme A after 1 hr.

Substrate in data set [8]: CC(C)C[C@H](NC(=O)CN)C(=O)N[C@@H](Cc1ccccc1)C(=O)N[C@@H](C)C(=O)N[C@@H](CO)C(=O)N[C@@H](CCCCN)C(=O)N[C@@H](CC(C)C)C(=O)N[C@@H](Cc1ccccc1)C(=O)O
As to the kind of experiment: Ratio of kcat to Km for Saccharomyces cerevisiae NMT D106K mutant.

Substrate in data set [9]: CC(C)C[C@H](NC(=O)CN)C(=O)N[C@@H](Cc1ccccc1)C(=O)N[C@@H](C)C(=O)N[C@@H](CO)C(=O)N[C@@H](CCCCN)C(=O)N[C@@H](CC(C)C)C(=O)N[C@@H](Cc1ccccc1)C(=O)O
In words: Activity of Saccharomyces cerevisiae NMT D22K mutant assessed as production of coenzyme A after 1 hr.

Substrate in data set [10]: CC(C)C[C@H](NC(=O)CN)C(=O)N[C@@H](Cc1ccccc1)C(=O)N[C@@H](C)C(=O)N[C@@H](CO)C(=O)N[C@@H](CCCCN)C(=O)N[C@@H](CC(C)C)C(=O)N[C@@H](Cc1ccccc1)C(=O)O
As to the kind of experiment: Ratio of kcat to Km for Saccharomyces cerevisiae NMT D22K mutant.

Substrate in data set [11]: CC(C)C[C@H](NC(=O)CN)C(=O)N[C@@H](Cc1ccccc1)C(=O)N[C@@H](C)C(=O)N[C@@H](CO)C(=O)N[C@@H](CCCCN)C(=O)N[C@@H](CC(C)C)C(=O)N[C@@H](Cc1ccccc1)C(=O)O
As to the kind of experiment: Activity of Saccharomyces cerevisiae NMT D22A mutant assessed as production of coenzyme A after 1 hr.

Substrate in data set [12]: CC(C)C[C@H](NC(=O)CN)C(=O)N[C@@H](Cc1ccccc1)C(=O)N[C@@H](C)C(=O)N[C@@H](CO)C(=O)N[C@@H](CCCCN)C(=O)N[C@@H](CC(C)C)C(=O)N[C@@H](Cc1ccccc1)C(=O)O
As to the kind of experiment: Ratio of kcat to Km for Saccharomyces cerevisiae NMT D22A mutant.

B1: Glycylpeptide N-tetradecanoyltransferase (Saccharomyces cerevisiae S288c), P14743 D108A (protein)
chain: MSEEDKAKKLENLLKLLQLNNDDTSKFTQEQKKAMKDHKFWRTQPVKDFDEKVVEEGPIDKPKTPEDISDKPLPLLSSFEWCSIDVDNKKQLEDVFVLLNENYVEDRAAGFRFNYTKEFFNWALKSPGWKKDWHIGVRVKETQKLVAFISAIPVTLGVRGKQVPSVEINFLCVHKQLRSKRLTPVLIKEITRRVNKCDIWHALYTAGIVLPAPVSTCRYTHRPLNWKKLYEVDFTGLPDGHTEEDMIAENALPAKTKTAGLRKLKKEDIDQVFELFKRYQSRFELIQIFTKEEFEHNFIGEESLPLDKQVIFSYVVEQPDGKITDFFSFYSLPFTILNNTKYKDLGIGYLYYYATDADFQFKDRFDPKATKALKTRLCELIYDACILAKNANMDVFNALTSQDNTLFLDDLKFGPGDGFLNFYLFNYRAKPITGGLNPDNSNDIKRRSNVGVVML
In the case of B1, in data set [1], the Michaelis-Menten constant (Km) is 7.89 µM and the kcat is 1.94 s⁻¹. Moreover, the kcat/Km in data set [2] amounted to 2.45 ×10⁵ /M/s.

B2: Glycylpeptide N-tetradecanoyltransferase (Saccharomyces cerevisiae S288c), P14743 T24D (protein)
chain: MSEEDKAKKLENLLKLLQLNNDDDSKFTQEQKKAMKDHKFWRTQPVKDFDEKVVEEGPIDKPKTPEDISDKPLPLLSSFEWCSIDVDNKKQLEDVFVLLNENYVEDRDAGFRFNYTKEFFNWALKSPGWKKDWHIGVRVKETQKLVAFISAIPVTLGVRGKQVPSVEINFLCVHKQLRSKRLTPVLIKEITRRVNKCDIWHALYTAGIVLPAPVSTCRYTHRPLNWKKLYEVDFTGLPDGHTEEDMIAENALPAKTKTAGLRKLKKEDIDQVFELFKRYQSRFELIQIFTKEEFEHNFIGEESLPLDKQVIFSYVVEQPDGKITDFFSFYSLPFTILNNTKYKDLGIGYLYYYATDADFQFKDRFDPKATKALKTRLCELIYDACILAKNANMDVFNALTSQDNTLFLDDLKFGPGDGFLNFYLFNYRAKPITGGLNPDNSNDIKRRSNVGVVML
As for B2, in data set [3], the Km amounted to 41.6 µM and the kcat was determined as 2.77 s⁻¹. Further, the kcat/Km in data set [4] worked out at 6.67 ×10⁴ /M/s.

B3: Glycylpeptide N-tetradecanoyltransferase (Saccharomyces cerevisiae S288c), P14743 D23A (protein)
chain: MSEEDKAKKLENLLKLLQLNNDATSKFTQEQKKAMKDHKFWRTQPVKDFDEKVVEEGPIDKPKTPEDISDKPLPLLSSFEWCSIDVDNKKQLEDVFVLLNENYVEDRDAGFRFNYTKEFFNWALKSPGWKKDWHIGVRVKETQKLVAFISAIPVTLGVRGKQVPSVEINFLCVHKQLRSKRLTPVLIKEITRRVNKCDIWHALYTAGIVLPAPVSTCRYTHRPLNWKKLYEVDFTGLPDGHTEEDMIAENALPAKTKTAGLRKLKKEDIDQVFELFKRYQSRFELIQIFTKEEFEHNFIGEESLPLDKQVIFSYVVEQPDGKITDFFSFYSLPFTILNNTKYKDLGIGYLYYYATDADFQFKDRFDPKATKALKTRLCELIYDACILAKNANMDVFNALTSQDNTLFLDDLKFGPGDGFLNFYLFNYRAKPITGGLNPDNSNDIKRRSNVGVVML
On to B3, for which, in data set [5], the Michaelis-Menten constant (Km) amounted to 21.4 µM and the catalytic constant (kcat) worked out at 2.71 s⁻¹. In addition, the kcat/Km in [6] is 1.27 ×10⁵ /M/s.

B4: Glycylpeptide N-tetradecanoyltransferase (Saccharomyces cerevisiae S288c), P14743 D106K (protein)
chain: MSEEDKAKKLENLLKLLQLNNDDTSKFTQEQKKAMKDHKFWRTQPVKDFDEKVVEEGPIDKPKTPEDISDKPLPLLSSFEWCSIDVDNKKQLEDVFVLLNENYVEKRDAGFRFNYTKEFFNWALKSPGWKKDWHIGVRVKETQKLVAFISAIPVTLGVRGKQVPSVEINFLCVHKQLRSKRLTPVLIKEITRRVNKCDIWHALYTAGIVLPAPVSTCRYTHRPLNWKKLYEVDFTGLPDGHTEEDMIAENALPAKTKTAGLRKLKKEDIDQVFELFKRYQSRFELIQIFTKEEFEHNFIGEESLPLDKQVIFSYVVEQPDGKITDFFSFYSLPFTILNNTKYKDLGIGYLYYYATDADFQFKDRFDPKATKALKTRLCELIYDACILAKNANMDVFNALTSQDNTLFLDDLKFGPGDGFLNFYLFNYRAKPITGGLNPDNSNDIKRRSNVGVVML
Consider B4, for which, in data set [7], the Km was found to be 30.6 µM and the kcat was determined as 2.65 s⁻¹. Also, the kcat/Km in data set [8] amounted to 8.65 ×10⁴ /M/s.

B5: Glycylpeptide N-tetradecanoyltransferase (Saccharomyces cerevisiae S288c), P14743 D22K (protein)
chain: MSEEDKAKKLENLLKLLQLNNKDTSKFTQEQKKAMKDHKFWRTQPVKDFDEKVVEEGPIDKPKTPEDISDKPLPLLSSFEWCSIDVDNKKQLEDVFVLLNENYVEDRDAGFRFNYTKEFFNWALKSPGWKKDWHIGVRVKETQKLVAFISAIPVTLGVRGKQVPSVEINFLCVHKQLRSKRLTPVLIKEITRRVNKCDIWHALYTAGIVLPAPVSTCRYTHRPLNWKKLYEVDFTGLPDGHTEEDMIAENALPAKTKTAGLRKLKKEDIDQVFELFKRYQSRFELIQIFTKEEFEHNFIGEESLPLDKQVIFSYVVEQPDGKITDFFSFYSLPFTILNNTKYKDLGIGYLYYYATDADFQFKDRFDPKATKALKTRLCELIYDACILAKNANMDVFNALTSQDNTLFLDDLKFGPGDGFLNFYLFNYRAKPITGGLNPDNSNDIKRRSNVGVVML
Turning to B5, in data set [9], the Km is 23.8 µM and the kcat is 2.5 s⁻¹. The kcat/Km in data set [10] amounted to 1.05 ×10⁵ /M/s.

B6: Glycylpeptide N-tetradecanoyltransferase (Saccharomyces cerevisiae S288c), P14743 D22A (protein)
chain: MSEEDKAKKLENLLKLLQLNNADTSKFTQEQKKAMKDHKFWRTQPVKDFDEKVVEEGPIDKPKTPEDISDKPLPLLSSFEWCSIDVDNKKQLEDVFVLLNENYVEDRDAGFRFNYTKEFFNWALKSPGWKKDWHIGVRVKETQKLVAFISAIPVTLGVRGKQVPSVEINFLCVHKQLRSKRLTPVLIKEITRRVNKCDIWHALYTAGIVLPAPVSTCRYTHRPLNWKKLYEVDFTGLPDGHTEEDMIAENALPAKTKTAGLRKLKKEDIDQVFELFKRYQSRFELIQIFTKEEFEHNFIGEESLPLDKQVIFSYVVEQPDGKITDFFSFYSLPFTILNNTKYKDLGIGYLYYYATDADFQFKDRFDPKATKALKTRLCELIYDACILAKNANMDVFNALTSQDNTLFLDDLKFGPGDGFLNFYLFNYRAKPITGGLNPDNSNDIKRRSNVGVVML
Take B6: in [11], the Km was 19 µM and the kcat was found to be 1.72 s⁻¹. For the same protein, the kcat/Km in [12] came out at 9.03 ×10⁴ /M/s.

By Km is commonly meant the concentration of substrate that gives half-maximal velocity. As a reminder, the kcat is the maximal rate divided by the concentration of active sites.
